Measurements: patent US11306156
Each block holds one substance with its values, some of them ahead of it.

Tests used:
[1] = target: D3H44 Fab heavy chain L124E_L143D_K145T, C-terminal ABD2-His6 tag; assay: LCCA set 9240 (co-expression; SPR read-out of light-chain tags; L1:L2 DNA 1:3, normalized to 1:1); competing light chain m13
[2] = target: D3H44 Fab heavy chain L124R_S186R, C-terminal ABD2-His6 tag; assay: LCCA set 9544 (co-expression; SPR read-out of light-chain tags; L1:L2 DNA 1:3, normalized to 1:1); competing light chain m13
[3] = target: D3H44 Fab heavy chain L124R_S186R, C-terminal ABD2-His6 tag; assay: LCCA (co-expression, SPR read-out of light chain tags), L1:L2 DNA 1:3 normalised to 1:1; competitor m8
[4] = target: D3H44 Fab heavy chain L124R_S186K, C-terminal ABD2-His6 tag; assay: as above
[5] = target: D3H44 Fab heavy chain L124E_L143E_K145T, C-terminal ABD2-His6 tag; assay: as above
[6] = target: D3H44 Fab heavy chain L124E_L143E_K145T, C-terminal ABD2-His6 tag; assay: LCCA set 9320 (co-expression; SPR read-out of light-chain tags; L1:L2 DNA 1:3, normalized to 1:1); competing light chain m9
[7] = target: D3H44 Fab heavy chain L124R_S186R, C-terminal ABD2-His6 tag; assay: LCCA co-expression, SPR tag read-out; DNA 1:3 norm. to 1:1; competing light chain m8
[8] = target: D3H44 Fab heavy chain L124E_L143E_K145T, C-terminal ABD2-His6 tag; assay: as above
[9] = target: D3H44 Fab heavy chain L124R_Q179K, C-terminal ABD2-His6 tag; assay: as above
[10] = target: D3H44 Fab heavy chain L124E_L143E_K145T, C-terminal ABD2-His6 tag; assay: LCCA co-expression, SPR tag read-out; DNA 1:3 norm. to 1:1; competing light chain m7
[11] = target: D3H44 Fab heavy chain L124R_Q179K, C-terminal ABD2-His6 tag; assay: as above
[12] = target: D3H44 Fab heavy chain L124E_L143D_K145M, C-terminal ABD2-His6 tag; assay: LCCA set 9202 (co-expression; SPR read-out of light-chain tags; L1:L2 DNA 1:3, normalized to 1:1); competing light chain m13
[13] = target: D3H44 Fab heavy chain L124R_S186K, C-terminal ABD2-His6 tag; assay: LCCA set 9488 (co-expression; SPR read-out of light-chain tags; L1:L2 DNA 1:3, normalized to 1:1); competing light chain m9
[14] = target: D3H44 Fab heavy chain L124E_L143D_K145M, C-terminal ABD2-His6 tag; assay: LCCA (co-expression, SPR read-out of light chain tags), L1:L2 DNA 1:3 normalised to 1:1; competitor m10
[15] = target: D3H44 Fab heavy chain L124R_Q179K, C-terminal ABD2-His6 tag; assay: as above
[16] = target: D3H44 Fab heavy chain L124R_D146N_Q179K, C-terminal ABD2-His6 tag; assay: LCCA set 9350 (co-expression; SPR read-out of light-chain tags; L1:L2 DNA 1:3, normalized to 1:1); competing light chain m12
[17] = target: D3H44 Fab heavy chain L124R_Q179K, C-terminal ABD2-His6 tag; assay: LCCA set 9388 (co-expression; SPR read-out of light-chain tags; L1:L2 DNA 1:3, normalized to 1:1); competing light chain m9
[18] = target: D3H44 Fab heavy chain L124E_L143D_K145M, C-terminal ABD2-His6 tag; assay: LCCA (co-expression, SPR read-out of light chain tags), L1:L2 DNA 1:3 normalised to 1:1; competitor m9
[19] = target: D3H44 Fab heavy chain L124E_L143D_K145T, C-terminal ABD2-His6 tag; assay: as above
[20] = target: D3H44 Fab heavy chain L124R_Q179K, C-terminal ABD2-His6 tag; assay: as above
[21] = target: D3H44 Fab heavy chain L124E_L143E_K145T, C-terminal ABD2-His6 tag; assay: LCCA set 9271 (co-expression; SPR read-out of light-chain tags; L1:L2 DNA 1:3, normalized to 1:1); competing light chain m12
[22] = target: D3H44 Fab heavy chain L124E_L143E_K145T, C-terminal ABD2-His6 tag; assay: LCCA set 9316 (co-expression; SPR read-out of light-chain tags; L1:L2 DNA 1:3, normalized to 1:1); competing light chain m9
[23] = target: D3H44 Fab heavy chain L124R_Q179K, C-terminal ABD2-His6 tag; assay: LCCA set 9384 (co-expression; SPR read-out of light-chain tags; L1:L2 DNA 1:3, normalized to 1:1); competing light chain m10
[24] = target: D3H44 Fab heavy chain L124E_L143E_K145T, C-terminal ABD2-His6 tag; assay: LCCA set 9298 (co-expression; SPR read-out of light-chain tags; L1:L2 DNA 1:3, normalized to 1:1); competing light chain m10
[25] = target: D3H44 Fab heavy chain L124E_L143E_K145M, C-terminal ABD2-His6 tag; assay: LCCA co-expression, SPR tag read-out; DNA 1:3 norm. to 1:1; competing light chain m8
[26] = target: D3H44 Fab heavy chain L124E_L143D_K145T, C-terminal ABD2-His6 tag; assay: as above
[27] = target: D3H44 Fab heavy chain L124E_L143E_K145M, C-terminal ABD2-His6 tag; assay: LCCA co-expression, SPR tag read-out; DNA 1:3 norm. to 1:1; competing light chain m7
[28] = target: D3H44 Fab heavy chain L124E_L143E_K145M, C-terminal ABD2-His6 tag; assay: LCCA set 9259 (co-expression; SPR read-out of light-chain tags; L1:L2 DNA 1:3, normalized to 1:1); competing light chain m10
[29] = target: D3H44 Fab heavy chain L124E_L143E_K145M, C-terminal ABD2-His6 tag; assay: LCCA set 9266 (co-expression; SPR read-out of light-chain tags; L1:L2 DNA 1:3, normalized to 1:1); competing light chain m9
[30] = target: D3H44 Fab heavy chain L124E_L143D_K145M, C-terminal ABD2-His6 tag; assay: LCCA (co-expression, SPR read-out of light chain tags), L1:L2 DNA 1:3 normalised to 1:1; competitor m11
[31] = target: D3H44 Fab heavy chain L124E_L143D_K145T, C-terminal ABD2-His6 tag; assay: as above
[32] = target: D3H44 Fab heavy chain L124R_Q179K, C-terminal ABD2-His6 tag; assay: as above
[33] = target: D3H44 light chain Q38R_Q124R_Q160K_T178R; assay: LCCA, SPR tag readout, L1:L2 DNA 1:9 normalized to 1:1; competitor m19
[34] = target: D3H44 light chain Q38R_Q124R_Q160K_T178R; assay: LCCA, SPR tag readout, L1:L2 DNA 1:3 normalized to 1:1; competitor m19
[35] = target: D3H44 light chain Q38E_Q124E_Q160E_T180E; assay: LCCA, SPR tag readout, L1:L2 DNA 1:9 normalized to 1:1; competitor m26
[36] = target: D3H44 light chain Q38E_Q124E_Q160E_T180E; assay: LCCA, SPR tag readout, L1:L2 DNA 1:3 normalized to 1:1; competitor m26
[37] = target: tissue factor (TF) antigen (UniProt P13726); assay: SPR (ProteOn XPR36), Fab captured on anti-penta His, TF injected at 0.74-60 nM, 1:1 model; median
[38] = target: tissue factor (TF) antigen (UniProt P13726); assay: SPR (ProteOn XPR36), Fab captured on anti-penta His, TF injected, 1:1 model
[39] = target: D3H44 Fab heavy chain L124A_L143F_Q179K, ABD2-His6 tagged; assay: LCCA, SPR of light chain tags; L1:L2 DNA 1:3 normalized to 1:1; competing light chain m12
[40] = target: D3H44 Fab heavy chain L124W_L143E_K145T_Q179E, ABD2-His6 tagged; assay: as above
[41] = target: D3H44 Fab heavy chain L124W_L143E_K145T_Q179E, ABD2-His6 tagged; assay: LCCA, SPR of light chain tags; L1:L2 DNA 1:9 normalized to 1:1; competing light chain m12

Substance: D3H44 light chain V133G_S176D_T178E_T180E, N-terminal HA or FLAG tag
- H1L1:H1L2 normalized median ratio (H1L2 part) [1]: 13%
- H2L2:H2L1 normalized median ratio (H2L2 part) [2]: 92%
- H2L2:H2L1 normalized median ratio [3]: 94%
- H2L2:H2L1 normalized median ratio [4]: 93%
- H1L1:H1L2 normalized median ratio [5]: 13%
- H1L1:H1L2 normalized median ratio (H1L2 part) [6]: 14%
- H2L2:H2L1 normalized median ratio (% (ratio normalized to 100)) [7]: 91
- H1L1:H1L2 normalized median ratio (% (ratio normalized to 100)) [8]: 5
- H2L2:H2L1 normalized median ratio (% (ratio normalized to 100)) [9]: 90
- H1L1:H1L2 normalized median ratio (% (ratio normalized to 100)) [10]: 6
- H2L2:H2L1 normalized median ratio (% (ratio normalized to 100)) [11]: 90
- H1L1:H1L2 normalized median ratio (H1L2 part) [12]: 16%
- H2L2:H2L1 normalized median ratio (H2L2 part) [13]: 91%

Substance: wild-type D3H44 Fab heterodimer constructs (Fab constructs containing HA tag or FLAG tag)
- Kd [37]: 0.15 nM
- fold difference between the maximum and minimum KD values [38]: 2.6 fold

The next lines start with the values.

- H1L1:H1L2 normalized median ratio [14]: 9%
- H2L2:H2L1 normalized median ratio [15]: 92%
- H2L2:H2L1 normalized median ratio (H2L2 part) [16]: 82%
- H2L2:H2L1 normalized median ratio (H2L2 part) [17]: 92%
- H1L1:H1L2 normalized median ratio [18]: 8%
- H1L1:H1L2 normalized median ratio [19]: 8%
- H2L2:H2L1 normalized median ratio [20]: 92%
- H1L1:H1L2 normalized median ratio (H1L2 part) [21]: 5%
- H1L1:H1L2 normalized median ratio (H1L2 part) [22]: 12%
- H2L2:H2L1 normalized median ratio (H2L2 part) [23]: 92%
- H1L1:H1L2 normalized median ratio (H1L2 part) [24]: 12%
- H1L1:H1L2 normalized median ratio (% (ratio normalized to 100)) [25]: 5
- H1L1:H1L2 normalized median ratio (% (ratio normalized to 100)) [26]: 8
- H2L2:H2L1 normalized median ratio (% (ratio normalized to 100)) [9]: 92
- H1L1:H1L2 normalized median ratio (% (ratio normalized to 100)) [27]: 8
- H1L1:H1L2 normalized median ratio (% (ratio normalized to 100)) [10]: 5
- H2L2:H2L1 normalized median ratio (% (ratio normalized to 100)) [11]: 92
- H1L1:H1L2 normalized median ratio (H1L2 part) [28]: 16%
- H1L1:H1L2 normalized median ratio (H1L2 part) [29]: 16%
- H1L1:H1L2 normalized median ratio [30]: 10%
- H1L1:H1L2 normalized median ratio [31]: 11%
- H2L2:H2L1 normalized median ratio [32]: 93%
Substance: D3H44 light chain Q124E_V133G_S176D_T178E_T180E, N-terminal HA or FLAG tag

- H1L1:H1L2 normalized median ratio [33]: 95%
- H1L1:H1L2 normalized median scalar value ln(r1/f1) [33]: 2.96
- H1L1:H1L2 normalized median ratio [34]: 97%
- H1L1:H1L2 normalized median ratio [35]: 5%
- H1L1:H1L2 normalized median ratio [36]: 3%
Substance: D3H44 Fab heavy chain Q39E_L143E_K145T_H172R_Q179E

- H1L1:H1L2 normalized median ratio [39]: 5%
- H2L2:H2L1 normalized median ratio [40]: 89%
- H2L2:H2L1 normalized median ratio [41]: 92%
Substance: D3H44 light chain Q124K_V133A_S176T_T178R, HA or FLAG tagged
